From the supplement of paper PMC10567573

B1: DLC1 (parent)
chain: AEVVKIRDSFSNQNTETKDTKSR

Variants of: B1
Assay: protein stability index of a GFP-peptide fusion (GPS, HEK-293T) (PSI 1-6); higher = more stable
Settings: c terminus: native
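Note: lentivirally expressed fusions sorted by FACS into six bins by GFP to DsRed ratio, PSI derived from sequencing read proportions per bin multiplied by bin number.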

| Variant | protein stability index |
| --- | --- |
| AEVVKIRDSFSGQNTETKDTKSR [N12G] | 2.51 |
| AEVVKIRDSFSRQNTETKDTKSR [N12R] | 1.7 |
| AEVVKIRDSFSEQNTETKDTKSR [N12E] | 2.71 |
| AEVVKIRDSFSQQNTETKDTKSR [N12Q] | 2.03 |
| AEVVKIRDSFSAQNTETKDTKSR [N12A] | 2.33 |
| AEVVKIRDSFSKQNTETKDTKSR [N12K] | 2.17 |
| AEVVKIRDSFSIQNTETKDTKSR [N12I] | 2.17 |
| AEVVKIRDSFSCQNTETKDTKSR [N12C] | 1.63 |
| AEVVKIRDSFSPQNTETKDTKSR [N12P] | 1.95 |
| AEVVKIRDSFSFQNTETKDTKSR [N12F] | 1.81 |
| AEVVKIRDSFSLQNTETKDTKSR [N12L] | 3.05 |
| AEVVKIRDSFSMQNTETKDTKSR [N12M] | 2.5 |
| AEVVKIRDSFSHQNTETKDTKSR [N12H] | 2.44 |
| AEVVKIRDSFMNQNTETKDTKSR [S11M] | 1.46 |
| AEVVKIRDSFYNQNTETKDTKSR [S11Y] | 2.65 |
| AEVVKIRDSFDNQNTETKDTKSR [S11D] | 2.05 |
| AEVVKIRDSFPNQNTETKDTKSR [S11P] | 2.54 |
| AEVVKIRDSFHNQNTETKDTKSR [S11H] | 2.61 |
| AEVVKIRDSFQNQNTETKDTKSR [S11Q] | 2.62 |
| AEVVKIRDSFNNQNTETKDTKSR [S11N] | 4.69 |
| AEVVKIRDSFENQNTETKDTKSR [S11E] | 2.4 |
| AEVVKIRDSFTNQNTETKDTKSR [S11T] | 2.48 |
| AEVVKIRDSFRNQNTETKDTKSR [S11R] | 2.78 |
| AEVVKIRDSFKNQNTETKDTKSR [S11K] | 3.15 |
| AEVVKIRDSFLNQNTETKDTKSR [S11L] | 1.88 |

| Variant | protein stability index |
| --- | --- |
| AEVVKIRDSFVNQNTETKDTKSR [S11V] | 2.35 |
| AEVVKIRDSFCNQNTETKDTKSR [S11C] | 2.58 |
| AEVVKIRDSFINQNTETKDTKSR [S11I] | 1.9 |
| AEVVKIRDSFGNQNTETKDTKSR [S11G] | 2.36 |
| AEVVKIRDSFANQNTETKDTKSR [S11A] | 1.9 |
| AEVVKIRDSFWNQNTETKDTKSR [S11W] | 1.88 |
| AEVVKIRDSFFNQNTETKDTKSR [S11F] | 2.85 |
| AEVVKIRNSFSNQNTETKDTKSR [D8N] | 2.07 |
| AEVVKIRGSFSNQNTETKDTKSR [D8G] | 2.23 |
| AEVVKIRESFSNQNTETKDTKSR [D8E] | 2.92 |
| AEVVKIRLSFSNQNTETKDTKSR [D8L] | 2.62 |
| AEVVKIRQSFSNQNTETKDTKSR [D8Q] | 1.26 |
| AEVVKIRTSFSNQNTETKDTKSR [D8T] | 2.32 |
| AEVVKIRVSFSNQNTETKDTKSR [D8V] | 3.31 |
| AEVVKIRFSFSNQNTETKDTKSR [D8F] | 3.02 |
| AEVVKIRKSFSNQNTETKDTKSR [D8K] | 2.08 |
| AEVVKIRSSFSNQNTETKDTKSR [D8S] | 1.8 |
| AEVVKIRASFSNQNTETKDTKSR [D8A] | 2.53 |
| AEVVKIRHSFSNQNTETKDTKSR [D8H] | 2.41 |
| AEVVKIRCSFSNQNTETKDTKSR [D8C] | 1.46 |
| AEVVKIRMSFSNQNTETKDTKSR [D8M] | 1.65 |
| AEVVKIRPSFSNQNTETKDTKSR [D8P] | 1.73 |
| AEVVKIRYSFSNQNTETKDTKSR [D8Y] | 3.5 |
| AEVVKIRDSHSNQNTETKDTKSR [F10H] | 3.71 |
| AEVVKIRDSVSNQNTETKDTKSR [F10V] | 2.95 |

| Variant | protein stability index |
| --- | --- |
| AEVVKIRDSPSNQNTETKDTKSR [F10P] | 3.63 |
| AEVVKIRDSRSNQNTETKDTKSR [F10R] | 4.5 |
| AEVVKIRDSISNQNTETKDTKSR [F10I] | 2.32 |
| AEVVKIRDSGSNQNTETKDTKSR [F10G] | 4.24 |
| AEVVKIRDSQSNQNTETKDTKSR [F10Q] | 3.46 |
| AEVVKIRDSDSNQNTETKDTKSR [F10D] | 4 |
| AEVVKIRDSLSNQNTETKDTKSR [F10L] | 3.26 |
| AEVVKIRDSCSNQNTETKDTKSR [F10C] | 2.54 |
| AEVVKIRDSYSNQNTETKDTKSR [F10Y] | 2.53 |
| AEVVKIRDSTSNQNTETKDTKSR [F10T] | 3.68 |
| AEVVKIRDSASNQNTETKDTKSR [F10A] | 3.76 |
| AEVVKIRDSESNQNTETKDTKSR [F10E] | 3.46 |
| AEVVKIRDSMSNQNTETKDTKSR [F10M] | 2.93 |
| AEVVKIRDSSSNQNTETKDTKSR [F10S] | 4 |
| AEVVKIRDSKSNQNTETKDTKSR [F10K] | 4.18 |
| AEVVKIRDSNSNQNTETKDTKSR [F10N] | 3.64 |
| AEVVKIYDSFSNQNTETKDTKSR [R7Y] | 1.77 |
| AEVVKIMDSFSNQNTETKDTKSR [R7M] | 3.19 |
| AEVVKIWDSFSNQNTETKDTKSR [R7W] | 1.69 |
| AEVVKIPDSFSNQNTETKDTKSR [R7P] | 3.24 |
| AEVVKIKDSFSNQNTETKDTKSR [R7K] | 2.88 |
| AEVVKILDSFSNQNTETKDTKSR [R7L] | 3.01 |
| AEVVKIIDSFSNQNTETKDTKSR [R7I] | 2.52 |
| AEVVKINDSFSNQNTETKDTKSR [R7N] | 3.31 |
| AEVVKIHDSFSNQNTETKDTKSR [R7H] | 2.21 |

| Variant | protein stability index |
| --- | --- |
| AEVVKISDSFSNQNTETKDTKSR [R7S] | 2.42 |
| AEVVKIGDSFSNQNTETKDTKSR [R7G] | 2.87 |
| AEVVKIVDSFSNQNTETKDTKSR [R7V] | 3.12 |
| AEVVKIRDFFSNQNTETKDTKSR [S9F] | 1.48 |
| AEVVKIRDDFSNQNTETKDTKSR [S9D] | 2.27 |
| AEVVKIRDGFSNQNTETKDTKSR [S9G] | 2 |
| AEVVKIRDWFSNQNTETKDTKSR [S9W] | 2.14 |
| AEVVKIRDCFSNQNTETKDTKSR [S9C] | 2.8 |
| AEVVKIRDIFSNQNTETKDTKSR [S9I] | 1.49 |
| AEVVKIRDEFSNQNTETKDTKSR [S9E] | 3.48 |
| AEVVKIRDQFSNQNTETKDTKSR [S9Q] | 1.87 |
| AEVVKIRDRFSNQNTETKDTKSR [S9R] | 2.53 |
| AEVVKIRDVFSNQNTETKDTKSR [S9V] | 2.25 |
| AEVVKIRDLFSNQNTETKDTKSR [S9L] | 2.95 |
| AEVVKIRDYFSNQNTETKDTKSR [S9Y] | 1.67 |
| AEVVKIRDKFSNQNTETKDTKSR [S9K] | 2.32 |
| AEVVKIRDTFSNQNTETKDTKSR [S9T] | 2.29 |
| AEVVKIRDNFSNQNTETKDTKSR [S9N] | 2.22 |
| AEVVKIRDMFSNQNTETKDTKSR [S9M] | 2.92 |
| AEVVKIRDHFSNQNTETKDTKSR [S9H] | 3.54 |
| AEVVKIRDPFSNQNTETKDTKSR [S9P] | 2.64 |
| AEVVKIRDAFSNQNTETKDTKSR [S9A] | 2.55 |
